Data as given in US20220396635A1 (UNIVERSIT T STUTTGART, published 2022).

B1: scDb/scFv-Fc (1-2)+1, trivalent bispecific anti-EGFRxanti-CD3 (bispecific antibody)
chain 1: EVQLVESGGGLVQPGGSLRLSCAASGFSLTNYGVHWVRQAPGKGLEWLGVIWSGGNTDYNTPFTSRFTISRDNSKNTLYLQMNSLRAEDTAVYYCARALTYYDYEFAYWGQGTTVTVSSGGGGSDIQMTQSPSSLSASVGDRVTITCRASQDIRNYLNWYQQKPGKAPKLLIYYTSRLHSGVPSRFSGSGSGTDFTFTISSLQPEDIATYYCQQGNTLPWTFGQGTKLEIKRGGGGSGGGGSGGGGSQVQLVQSGAEVKKPGSSVKVSCKASGGTFSGYTMNWVRQAPGQGLEWMGLINPYKGVSTYNGKFKDRVTITADKSTSTAYMELSSLRSEDTAVYYCARSGYYGDSDWYFDVWGQGTLVTVSSGGGGSDIQLTQSPSFLSASVGDRVTITCRASQSIGTNIHWYQQKPGKAPKLLIKYASESISGVPSRFSGSGSGTEFTLTISSLQPEDFATYYCQQNNNWPTTFGAGTKLEIKRAAADKTHTCPPCPAPPVAGPSVFLFPPKPKDTLMISRTPEVTCVVVDVSHEDPEVKFNWYVDGVEVHNAKTKPREEQYNSTYRVVSVLTVLHQDWLNGKEYKCKVSNKGLPSSIEKTISKAKGQPREPQVCTLPPSRDELTKNQVSLSCAVKGFYPSDIAVEWESNGQPENNYKTTPPVLDSDGSFFLVSKLTVDKSRWQQGNVFSCSVMHEALHNHYTQKSLSLSPGK
chain 2: EVQLVESGGGLVQPGGSLRLSCAASGFSLTNYGVHWVRQAPGKGLEWLGVIWSGGNTDYNTPFTSRFTISRDNSKNTLYLQMNSLRAEDTAVYYCARALTYYDYEFAYWGQGTTVTVSSGGGGSGGGGSGGGGSDIQLTQSPSFLSASVGDRVTITCRASQSIGTNIHWYQQKPGKAPKLLIKYASESISGVPSRFSGSGSGTEFTLTISSLQPEDFATYYCQQNNNWPTTFGAGTKLEIKRAAADKTHTCPPCPAPPVAGPSVFLFPPKPKDTLMISRTPEVTCVVVDVSHEDPEVKFNWYVDGVEVHNAKTKPREEQYNSTYRVVSVLTVLHQDWLNGKEYKCKVSNKGLPSSIEKTISKAKGQPREPQVYTLPPCRDELTKNQVSLWCLVKGFYPSDIAVEWESNGQPENNYKTTPPVLDSDGSFFLYSKLTVDKSRWQQGNVFSCSVMHEALHNHYTQKSLSLSPGK
notes: also called scDbhu225xhuU3-Fc(hole)Δab + scFvhu225-Fc(knob)Δab
B2: scDb/Fab-Fc (1-2)+1, trivalent bispecific anti-EGFRxanti-CD3 (bispecific antibody)
chain: B1 chain 1
heavy: EVQLVESGGGLVQPGGSLRLSCAASGFSLTNYGVHWVRQAPGKGLEWLGVIWSGGNTDYNTPFTSRFTISRDNSKNTLYLQMNSLRAEDTAVYYCARALTYYDYEFAYWGQGTTVTVSSASTKGPSVFPLAPSSKSTSGGTAALGCLVKDYFPEPVTVSWNSGALTSGVHTFPAVLQSSGLYSLSSVVTVPSSSLGTQTYICNVNHKPSNTKVDKKVEPKSCGTDKTHTCPPCPAPPVAGPSVFLFPPKPKDTLMISRTPEVTCVVVDVSHEDPEVKFNWYVDGVEVHNAKTKPREEQYNSTYRVVSVLTVLHQDWLNGKEYKCKVSNKGLPSSIEKTISKAKGQPREPQVYTLPPCRDELTKNQVSLWCLVKGFYPSDIAVEWESNGQPENNYKTTPPVLDSDGSFFLYSKLTVDKSRWQQGNVFSCSVMHEALHNHYTQKSLSLSPGK
light: DIQLTQSPSFLSASVGDRVTITCRASQSIGTNIHWYQQKPGKAPKLLIKYASESISGVPSRFSGSGSGTEFTLTISSLQPEDFATYYCQQNNNWPTTFGAGTKLEIKRTVAAPSVFIFPPSDEQLKSGTASVVCLLNNFYPREAKVQWKVDNALQSGNSQESVTEQDSKDSTYSLSSTLTLSKADYEKHKVYACEVTHQGLSSPVTKSFNRGEC
notes: also called scDbhu225xhuU3-Fc(hole)Δab + Fdhu225-Fc(knob)Δab + VLhu225-CLκ
B3: scDb/scFv-Fc (2-1)+1, trivalent bispecific anti-EGFRxanti-CD3 (bispecific antibody)
chain 1: QVQLVQSGAEVKKPGSSVKVSCKASGGTFSGYTMNWVRQAPGQGLEWMGLINPYKGVSTYNGKFKDRVTITADKSTSTAYMELSSLRSEDTAVYYCARSGYYGDSDWYFDVWGQGTLVTVSSGGGGSDIQLTQSPSFLSASVGDRVTITCRASQSIGTNIHWYQQKPGKAPKLLIKYASESISGVPSRFSGSGSGTEFTLTISSLQPEDFATYYCQQNNNWPTTFGAGTKLEIKRGGGGSGGGGSGGGGSEVQLVESGGGLVQPGGSLRLSCAASGFSLTNYGVHWVRQAPGKGLEWLGVIWSGGNTDYNTPFTSRFTISRDNSKNTLYLQMNSLRAEDTAVYYCARALTYYDYEFAYWGQGTTVTVSSGGGGSDIQMTQSPSSLSASVGDRVTITCRASQDIRNYLNWYQQKPGKAPKLLIYYTSRLHSGVPSRFSGSGSGTDFTFTISSLQPEDIATYYCQQGNTLPWTFGQGTKLEIKRAAADKTHTCPPCPAPPVAGPSVFLFPPKPKDTLMISRTPEVTCVVVDVSHEDPEVKFNWYVDGVEVHNAKTKPREEQYNSTYRVVSVLTVLHQDWLNGKEYKCKVSNKGLPSSIEKTISKAKGQPREPQVCTLPPSRDELTKNQVSLSCAVKGFYPSDIAVEWESNGQPENNYKTTPPVLDSDGSFFLVSKLTVDKSRWQQGNVFSCSVMHEALHNHYTQKSLSLSPGK
chain 2: B1 chain 2
notes: also called scDbhuU3xhu225-Fc(hole)Δab + scFvhu225-Fc(knob)Δab
B4: scDb/Fab-Fc (2-1)+1, trivalent bispecific anti-EGFRxanti-CD3 (bispecific antibody)
chain: B3 chain 1
heavy: B2 heavy
light: B2 light
notes: also called scDbhuU3xhu225-Fc(hole)Δab + Fdhu225-Fc(knob)Δab + VLhu225-CLκ

Target: T1, EGFR (UniProt P00533 25-1210, limits assumed)
T1 construct: whole, on cells; the cell lines are human tumor lines
Experiment: flow cytometry, serial dilution on SKBR-3 cells (EGFR-expressing), PE anti-human Fc detection
Method: (§1) Binding analysis of the trivalent, bispecific antibodies was performed by flow cytometry using tumor cell lines with different EGFR-expression levels (FIG. 20) (Table 12). Adherent cells were washed with PBS and shortly trypsinized at 37° C. Trypsin was quenched with FCS-containing medium and removed by centrifugation (500×g, 5 min.). Target cells (FaDu, LIM1215, SKBR-3, T-47-D, MCF-7 and Jurkat cells) at 1×10⁵ cells/well were incubated with a serial dilution of trivalent, bispecific antibodies for 1 h at 4° C. After removing excess of recombinant protein by washing with PBA (PBS, 2% FBS, and 0.02% sodium azide), bound protein was detected using PE-conjugated anti-human Fc mAb (Jackson ImmunoResearch Laboratories Inc). Fluorescence was measured using MACSquant VYB (Miltenyi Biotec) and data were analyzed using FlowJo (Tree Star). Relative median fluorescence intensities (MFI) were calculated as followed: relative MFI=((MFIₛₐₘₚₗₑ-(MFIdetection-MFIcells))/MFIcells).

Point of comparison: B4, EC50 0.1 nM. Against it:
- B1 — within 1.5-fold, 0.09 nM
- B2 — the same, 0.1 nM
- B3 — the same, 0.1 nM

Target: T2, CD3 (UniProt P07766 23-207)
T2 construct: whole, on cells; on cells it stands in the TCR/CD3 complex; also called CD3 on Jurkat cells
Experiment: flow cytometry, serial dilution on Jurkat cells (CD3-expressing), PE anti-human Fc detection
Method: as §1

Point of comparison: B1, EC50 9.6 nM. Against it:
- B2 — 9.6-fold lower, 1 nM
- B3 — 1.7-fold higher, 16.3 nM
- B4 — 6.9-fold lower, 1.4 nM

Target: T1, EGFR
Experiment: flow cytometry, serial dilution on LIM1215 cells (EGFR-expressing), PE anti-human Fc detection
Method: as §1

Point of comparison: B3, EC50 0.2 nM. Against it:
- B1 — the same, 0.2 nM
- B2 — the same, 0.2 nM
- B4 — the same, 0.2 nM

Target: T1, EGFR
Experiment: flow cytometry, serial dilution on T-47-D cells (EGFR-expressing), PE anti-human Fc detection
Method: as §1

Point of comparison: B1, EC50 0.02 nM. Against it:
- B2 — 1.5-fold higher, 0.03 nM
- B3 — 5-fold higher, 0.1 nM
- B4 — 1.5-fold higher, 0.03 nM

Target: T1, EGFR
Experiment: cell-based or functional assay

Point of comparison: B4, “EC50 of PBMC cytotoxicity on FaDu cells, E:T 5:1” value 0.056 nM. Against it:
- B1 — 2.2-fold lower, 0.026 nM
- B2 — within 1.5-fold, 0.05 nM
- B3 — 2.1-fold lower, 0.027 nM

Point of comparison: B2, “EC50 of PBMC cytotoxicity on SKBR-3 cells, E:T 5:1” value 0.209 nM. Against it:
- B1 — 1.7-fold lower, 0.126 nM
- B3 — within 1.5-fold, 0.277 nM
- B4 — the same, 0.209 nM

Target: T1, EGFR
Experiment: flow cytometry, serial dilution on FaDu cells (EGFR-expressing), PE anti-human Fc detection
Method: as §1

Point of comparison: B2, EC50 0.2 nM. Against it:
- B1 — 5.5-fold higher, 1.1 nM
- B3 — 3.5-fold higher, 0.7 nM
- B4 — the same, 0.2 nM

Target: T1, EGFR
Experiment: flow cytometry, serial dilution on MCF-7 cells (EGFR-expressing), PE anti-human Fc detection
Method: as §1

Point of comparison: B4, EC50 0.03 nM. Against it:
- B1 — the same, 0.03 nM
- B2 — within 1.5-fold, 0.04 nM
- B3 — 3.3-fold higher, 0.1 nM
